# Results published in patent publication US10415067B2, “Method for the enzymatic production of D-erythrose and acetyl phosphate” (SCIENTIST OF FORTUNE S.A., priority 2014, dated 2019).
# T1: Bifidobacterium pseudolongum subsp. globosum phosphoketolase, Uniprot Q6R2Q6, SEQ ID NO: 1 (Bifidobacterium pseudolongum, UniProt Q6R2Q6)
# T1 sequence (Q6R2Q6 1-825): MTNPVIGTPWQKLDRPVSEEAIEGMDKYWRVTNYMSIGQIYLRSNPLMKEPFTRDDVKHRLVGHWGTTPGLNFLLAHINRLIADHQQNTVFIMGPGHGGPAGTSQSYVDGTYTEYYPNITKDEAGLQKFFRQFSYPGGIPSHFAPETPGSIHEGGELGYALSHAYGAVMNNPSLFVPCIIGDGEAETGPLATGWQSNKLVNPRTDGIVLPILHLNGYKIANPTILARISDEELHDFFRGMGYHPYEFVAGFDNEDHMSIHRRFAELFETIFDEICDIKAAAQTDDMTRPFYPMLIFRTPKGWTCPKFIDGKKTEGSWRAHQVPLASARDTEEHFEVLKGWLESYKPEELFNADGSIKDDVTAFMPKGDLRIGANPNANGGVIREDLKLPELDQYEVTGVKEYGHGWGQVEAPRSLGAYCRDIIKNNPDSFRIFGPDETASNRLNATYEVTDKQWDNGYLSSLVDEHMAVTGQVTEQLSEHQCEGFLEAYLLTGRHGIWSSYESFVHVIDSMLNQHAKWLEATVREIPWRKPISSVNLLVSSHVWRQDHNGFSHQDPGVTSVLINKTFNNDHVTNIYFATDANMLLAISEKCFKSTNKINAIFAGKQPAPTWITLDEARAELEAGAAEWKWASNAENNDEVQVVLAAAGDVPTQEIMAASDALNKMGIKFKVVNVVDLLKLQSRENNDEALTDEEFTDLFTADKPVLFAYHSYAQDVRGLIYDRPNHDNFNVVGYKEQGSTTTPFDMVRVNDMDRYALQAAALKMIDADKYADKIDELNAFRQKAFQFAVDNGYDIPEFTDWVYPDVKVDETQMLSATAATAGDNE
# Experiments:
# [1] = molecular target: T1, Bifidobacterium pseudolongum subsp. globosum phosphoketolase, Uniprot Q6R2Q6, SEQ ID NO: 1; assay: Kinetics of acetyl phosphate formation from D-fructose (hydroxamate-based colorimetric assay); format: biochemical; conditions: D-fructose 0-500 mM, 50 mM sodium phosphate, pH 7.5, 37° C., 3 mg/ml enzyme
# From the text: (§1) The sequences of phosphoketolases inferred from the genomes of prokaryotic organisms were generated by oligonucleotide concatenation to fit the codon usage of E. coli (genes were commercially synthesized by GeneArt®). A stretch of 6 histidine codons was inserted after the methionine initiation codon to provide an affinity tag for purification. The genes thus synthesized were cloned in a modified pUC18 expression vector (New England Biolabs) containing a modified Multiple Cloning Sites (MCS). The genes of interest were cloned at PacI and NotI restriction sites. Competent MG1655 E. coli cells were transformed with these vectors using standard heat shock procedure. The transformed cells were grown in LB-ampicillin medium for 24 h at 30° C., 160 rpm shaking.
# (§2) The pellets from 200 ml of cultured cells were thawed on ice and resuspended in 3 ml of 50 mM Tris-HCl pH 7.5 containing 300 mM NaCl, 5 mM MgCl2, 1 mM DTT and 10 mM Imidazole. 10 μl of lysonase (Merck) was added. […] Protein concentrations were quantified by direct UV 280 nm measurement on the NanoDrop 1000 spectrophotometer (Thermo Scientific). […]
# (§3) The composition of enzymatic reactions was identical to that described above. Kinetic parameters were determined using a range of D-fructose concentrations (0-500 mM) and a constant concentration of sodium phosphate (50 mM). […]
# [2] = molecular target: Lactococcus lactis subsp. lactis (strain KF147) phosphoketolase, Uniprot A9QST6, SEQ ID NO: 3 (Lactococcus lactis, UniProt Q9CFH4); assay: as above; format: biochemical; conditions: D-fructose 0-500 mM, 50 mM sodium phosphate, pH 7.5, 37° C., 3 mg/ml enzyme
# From the text: as §1, §2, §3
# [3] = substrate: O=CCO; assay: Kinetics of acetyl phosphate formation from glycolaldehyde (hydroxamate-based colorimetric assay); format: biochemical, Lactococcus lactis subsp. lactis (strain KF147); conditions: other: glycolaldehyde 0-100 mM, 50 mM sodium phosphate, pH 7.5, 37° C., 3 mg/ml enzyme
# From the text: as §1, §2
# (§4) 0.1 ml of hydroxylamine hydrochloride (2 M, pH 6.5) was added to 0.1 ml of reaction mixture. […] The samples were further clarified by centrifugation and the absorbance of ferric acetyl-hydroxamate complex was measured at 505 nm. […]
# [4] = substrate: O=CCO; assay: as above; format: biochemical, Clostridium acetobutylicum (strain ATCC 824); conditions: other: glycolaldehyde 0-100 mM, 50 mM sodium phosphate, pH 7.5, 37° C., 3 mg/ml enzyme
# From the text: as §1, §2, §4
# [5] = substrate: O=CCO; assay: as above; format: biochemical, Bifidobacterium pseudolongum subsp. globosum; conditions: other: glycolaldehyde 0-100 mM, 50 mM sodium phosphate, pH 7.5, 37° C., 3 mg/ml enzyme
# From the text: as §1, §2, §4
molecule,measurement,setting,value
OCC1(O)OC[C@@H](O)[C@@H](O)[C@@H]1O (stereo partly drawn) [D-fructose],kcat,[1],0.10 ± 0.02 s⁻¹
same,kcat,[2],0.11 ± 0.04 s⁻¹
"Lactococcus lactis subsp. lactis (strain KF147) phosphoketolase, Uniprot A9QST6, SEQ ID NO: 3 (Lactococcus lactis subsp. lactis Il1403) (protein) MTEYNSEAYLKKLDKWWRAATYLGAGMIFLKENPLFSVTGTPIKAENLKANPIGHWGTVSGQTFLYAHANRLINKYNQKMFYMGGPGHGGQAMVVPSYLDGSYTEAYPEITQDLEGMSRLFKRFSFPGGIGSHMTAQTPGSLHEGGELGYVLSHATGAILDQPEQIAFAVVGDGEAETGPLMTSWHSIKFINPKNDGAILPILDLNGFKISNPTLFARTSDVDIRKFFEGLGYSPRYIENDDIHDYMAYHKLAAEVFDKAIEDIHQIQKDAREDNRYQNGEIPAWPIVIARLPKGWGGPRYNDWSGPKFDGKGMPIEHSFRAHQVPLPLSSKNMGTLPEFVKWMTSYQPETLFNADGSLKEELRDFAPKGEMRMASNPVTNGGVDYSNLVLPDWQEFANPISENNRGKLLPDTNDNMDMNVLSKYFAEIVKLNPTRFRLFGPDETMSNRFWEMFKVTNRQWMQVIKNPNDEFISPEGRIIDSQLSEHQAEGWLEGYTLTGRTGVFASYESFLRVVDSMLTQHFKWIRQAADQKWRHDYPSLNVISTSTVFQQDHNGYTHQDPGMLTHLAEKKSDFIRQYLPADGNTLLAVFDRAFQDRSKINHIVASKQPRQQWFTKEEAEKLATDGIATIDWASTAKDGEAVDLVFASAGAEPTIETLAALHLVNEVFPQAKFRYVNVVELGRLQKKKGALNQERELSDEEFEKYFGPSGTPVIFGFHGYEDLIESIFYQRGHDGLIVHGYREDGDITTTYDMRVYSELDRFHQAIDAMQVLYVNRKVNQGLAKAFIDRMERTLVKHFEVTRNEGVDIPEFTEWVWSDLKK",Km,[3],≈25 mM mM
same,kcat,[3],0.05 s⁻¹
"Clostridium acetobutylicum (strain ATCC 824) phosphoketolase, Uniprot Q97JE3, SEQ ID NO: 2 (Clostridium acetobutylicum ATCC 824) (protein) MQSIIGKHKDEGKITPEYLKKIDAYWRAANFISVGQLYLLDNPLLREPLKPEHLKRKVVGHWGTIPGQNFIYAHLNRVIKKYDLDMIYVSGPGHGGQVMVSNSYLDGTYSEVYPNVSRDLNGLKKLCKQFSFPGGISSHMAPETPGSINEGGELGYSLAHSFGAVFDNPDLITACVVGDGEAETGPLATSWQANKFLNPVTDGAVLPILHLNGYKISNPTVLSRIPKDELEKFFEGNGWKPYFVEGEDPETMHKLMAETLDIVTEEILNIQKNARENNDCSRPKWPMIVLRTPKGWTGPKFVDGVPNEGSFRAHQVPLAVDRYHTENLDQLEEWLKSYKPEELFDENYRLIPELEELTPKGNKRMAANLHANGGLLLRELRTPDFRDYAVDVPTPGSTVKQDMIELGKYVRDVVKLNEDTRNFRIFGPDETMSNRLWAVFEGTKRQWLSEIKEPNDEFLSNDGRIVDSMLSEHLCEGWLEGYLLTGRHGFFASYEAFLRIVDSMITQHGKWLKVTSQLPWRKDIASLNLIATSNVWQQDHNGYTHQDPGLLGHIVDKKPEIVRAYLPADANTLLAVFDKCLHTKHKINLLVTSKHPRQQWLTMDQAVKHVEQGISIWDWASNDKGQEPDVVIASCGDTPTLEALAAVTILHEHLPELKVRFVNVVDMMKLLPENEHPHGLSDKDYNALFTTDKPVIFAFHGFAHLINQLTYHRENRNLHVHGYMEEGTITTPFDMRVQNKLDRFNLVKDVVENLPQLGNRGAHLVQLMNDKLVEHNQYIREVGEDLPEITNWQWHV",Km,[4],≈30 mM mM
same,kcat,[4],0.08 s⁻¹
"Bifidobacterium pseudolongum subsp. globosum phosphoketolase, Uniprot Q6R2Q6, SEQ ID NO: 1 (Bifidobacterium pseudolongum subsp. globosum) (protein) MTNPVIGTPWQKLDRPVSEEAIEGMDKYWRVTNYMSIGQIYLRSNPLMKEPFTRDDVKHRLVGHWGTTPGLNFLLAHINRLIADHQQNTVFIMGPGHGGPAGTSQSYVDGTYTEYYPNITKDEAGLQKFFRQFSYPGGIPSHFAPETPGSIHEGGELGYALSHAYGAVMNNPSLFVPCIIGDGEAETGPLATGWQSNKLVNPRTDGIVLPILHLNGYKIANPTILARISDEELHDFFRGMGYHPYEFVAGFDNEDHMSIHRRFAELFETIFDEICDIKAAAQTDDMTRPFYPMLIFRTPKGWTCPKFIDGKKTEGSWRAHQVPLASARDTEEHFEVLKGWLESYKPEELFNADGSIKDDVTAFMPKGDLRIGANPNANGGVIREDLKLPELDQYEVTGVKEYGHGWGQVEAPRSLGAYCRDIIKNNPDSFRIFGPDETASNRLNATYEVTDKQWDNGYLSSLVDEHMAVTGQVTEQLSEHQCEGFLEAYLLTGRHGIWSSYESFVHVIDSMLNQHAKWLEATVREIPWRKPISSVNLLVSSHVWRQDHNGFSHQDPGVTSVLINKTFNNDHVTNIYFATDANMLLAISEKCFKSTNKINAIFAGKQPAPTWITLDEARAELEAGAAEWKWASNAENNDEVQVVLAAAGDVPTQEIMAASDALNKMGIKFKVVNVVDLLKLQSRENNDEALTDEEFTDLFTADKPVLFAYHSYAQDVRGLIYDRPNHDNFNVVGYKEQGSTTTPFDMVRVNDMDRYALQAAALKMIDADKYADKIDELNAFRQKAFQFAVDNGYDIPEFTDWVYPDVKVDETQMLSATAATAGDNE",Km,[5],≈20 mM mM
same,kcat,[5],0.07 s⁻¹
